One may read the Kd as the concentration at which binding is half-saturated. A high value points to lower affinity.

This assay addresses T1, EGFR on A431 cell line (overexpresses EGFR) (UniProt P00533 25-1210).
T1 construct: whole, on cells; also called A431 cells; cells overexpressing EGFR
In words: cell ELISA on A431 cells attached to the plate, antibody titrated. On the procedure: Binding capacity between the antibody obtained in 5 and the A431 cell line (ATCC) which overexpresses EGFR is determined by ELISA [Biological efficacy of a chimeric antibody to the epidermal growth factor receptor in a human tumor xenograft model, Clinic. Cancer res., 1995, vol. 1, 1311-1318] (the entire contents of which are incorporated herein by reference). The protocol for the ELISA assay is similar to that described in 6 above, except that antibody was used over a range of concentration and A431 cells were attached to the plate.
(ELISA stands for enzyme-linked immunosorbent assay.)

B1: Erbb1 78 clone antibody (fully human full-length IgG) (antibody, V domains shown)
VH: QMQLVQSGGGVVRPGGSLRLSCAASGFTFDDYGMSWVRQAPGKGLEWVSGINWNGGSTGYADSVKGRFTISRDNAKNSLYLQMNSLRAEDTAVYYCARDYWGSLDYWGQGTLITVSS
VL: QSALTQPASVSGSPGQSITISCTGTSSDVGGYNYVSWYQQNSGKAPKLMIHDVNRRPSGVSNRFSGSKSGNTASLTIAGLQADDEADYYCSSYVSTNTYVFGTGTKVTVL
notes: also called Erbb1-78 antibody
As to B1, binding was characterised by a dissociation constant (Kd) of 1.09 nM.

Values taken from patent US20110280883A1 (SAMSUNG ELECTRONICS, published 2011).
